Experimental data published in article PMC4832192, “Structural basis of DNA sequence recognition by the response regulator PhoP in Mycobacterium tuberculosis”.

B1: RD6 (dsDNA)
DNA 1: AAGTACCTCACAGCACTTTCACAGCTTTCAT
DNA 2: ATGAAAGCTGTGAAAGTGCTGTGAGGTACTT
B2: lpqA (dsDNA)
DNA 1: GCACCTTCACCGCCCGCCCACAGCCACGCA
DNA 2: TGCGTGGCTGTGGGCGGGCGGTGAAGGTGC
B3: RD6-half (dsDNA)
DNA 1: CAGAAGTCACAGCACTTGGG
DNA 2: CCCAAGTGCTGTGACTTCTG
B4: ahpC (dsDNA)
DNA 1: TTTGCCTGACAGCGACTTCACGGCACGATG
DNA 2: CATCGTGCCGTGAAGTCGCTGTCAGGCAAA
B5: tri (three motifs) (dsDNA)
DNA 1: GTACCTCACAGCACTTTCACAGCTTTCTCACAGCATCTATG
DNA 2: CATAGATGCTGTGAGAAAGCTGTGAAAGTGCTGTGAGGTAC
B6: DR (dsDNA)
DNA 1: ACGATTCACAGCTGATTCACAGCATCTACG
DNA 2: CGTAGATGCTGTGAATCAGCTGTGAATCGT
B7: hisG (dsDNA)
DNA 1: CGCGACCCGCAGCATGCTCACAGCTTTCGA
DNA 2: TCGAAAGCTGTGAGCATGCTGCGGGTCGCG
B8: tetra (four motifs) (dsDNA)
DNA 1: GTACCTCACAGCACTTTCACAGCTTTCTCACAGCTGATTCACAGCATCTATG
DNA 2: CATAGATGCTGTGAATCAGCTGTGAGAAAGCTGTGAAAGTGCTGTGAGGTAC
B9: DRs3 (3-bp spacer) (dsDNA)
DNA 1: AAGTACCTCACAGCACTTCACAGCTTTCAT
DNA 2: ATGAAAGCTGTGAAGTGCTGTGAGGTACTT
B10: crystal direct-repeat DNA (dsDNA)
DNA 1: GATTCACAGCTGATTCACAGCATCTA
DNA 2: CTAGATGCTGTGAATCAGCTGTGAAT

Legend:
[1] = target: PhoPC (isolated effector/DNA-binding domain) (Mycobacterium tuberculosis, UniProt P71814 148-247); assay: ITC; 5 mM MgCl2; ITC: 20 mM HEPES pH 7.5, 100 mM NaCl, 5 mM MgCl2, 25 C, DNA titrated into protein; conditions: protein: recombinant; tags: His-tag removed (similar procedure); chain copies: 2
[2] = target: T1, PhoP wild type (Mycobacterium tuberculosis, UniProt P71814 1-247); assay: ITC; 5 mM MgCl2; ITC: 20 mM HEPES pH 7.5, 100 mM NaCl, 5 mM MgCl2, 25 C, […]; conditions: protein: recombinant; tags: N-terminal His-tag removed with TEV; chain copies: 2
[3] = target: T1, PhoP wild type; assay: X-ray crystal structure (2.4 A); Ca2+ at Asp71; 2:1 PhoP:DNA; ITC: 20 mM HEPES pH 7.5, 100 mM NaCl, 5 mM MgCl2, 25 C, […]; conditions: protein: recombinant; tags: N-terminal His-tag removed with TEV; chain copies: 2; G/C overhangs

| Binder | Kd [2] [nM] | other results |
| --- | --- | --- |
| B1 | – | Kd [1]: 188 ± 9 nM |
| B2 | 347 ± 35.1 | – |
| B3 | – | Kd [1]: 12200 ± 1600 nM |
| B4 | 104 ± 7.2 | – |
| B5 | 4.6 ± 2.7 | – |
| B6 | 19.2 ± 2.8 | – |
| B7 | 35.6 ± 4.3 | – |
| B8 | 2.2 ± 0.7 | – |
| B9 | 433 ± 17.5 | – |
| B10 | – | binding result [3]: binds |
